Laboratory results taken from publication PMC7708047, “VEZF1–guanine quadruplex DNA interaction regulates alternative polyadenylation and detyrosinase activity of VASH1”.

T1: VEZF1-3xFlag (Homo sapiens, UniProt Q14119 1-521)
T1 sequence: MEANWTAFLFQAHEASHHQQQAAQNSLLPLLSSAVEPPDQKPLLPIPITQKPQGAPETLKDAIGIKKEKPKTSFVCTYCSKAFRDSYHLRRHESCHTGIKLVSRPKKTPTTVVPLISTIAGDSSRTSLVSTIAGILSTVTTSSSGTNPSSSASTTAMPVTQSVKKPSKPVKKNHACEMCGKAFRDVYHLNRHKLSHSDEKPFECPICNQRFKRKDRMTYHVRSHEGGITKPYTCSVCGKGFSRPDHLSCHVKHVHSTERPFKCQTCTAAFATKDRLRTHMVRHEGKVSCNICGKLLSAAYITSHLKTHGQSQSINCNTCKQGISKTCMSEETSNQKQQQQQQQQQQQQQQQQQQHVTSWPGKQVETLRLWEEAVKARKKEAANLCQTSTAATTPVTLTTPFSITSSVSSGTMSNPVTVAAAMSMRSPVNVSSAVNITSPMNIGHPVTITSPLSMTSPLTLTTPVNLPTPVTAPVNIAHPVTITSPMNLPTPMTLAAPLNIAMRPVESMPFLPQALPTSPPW


Biological target: T1, VEZF1-3xFlag
Experiment: EMSA; 100 mM K+, 10 uM Zn2+; EMSA: 25 nM DNA, 10 mM Tris-HCl pH 7.5, 100 mM KCl, 10 uM ZnCl2, 1 mM DTT, 3% glycerol, on ice 30 min; 6% PAGE in TBE pH 8.3, 4 C
Details: protein: recombinant, tags: C-terminal 3xFlag, label: 5'-TAMRA

| Binder | Kd (G4) | binding result (single strand) | other results |
| --- | --- | --- | --- |
| AAAGGGTTAGGGTTAGGGTTAGGGAA (structured_DNA) [hTEL G4] | 780 ± 40 nM |  |  |
| AAAGGGTTAGTGTTAGTGTTAGGGAA (ssDNA) [hTEL M4] |  |  | Kd (single strand): 1640 ± 70 nM |
| GTGTGAGGTGGAAGTGAAAGAAGTGAAGAGCAGTGAGAGTGTGCC (ssDNA) [R1M4-1] |  | no binding |  |
| R1M4-2 (ssDNA) DNA: TCGTGAGTGTGGAGTGAGGTGCTGTGCCTGAGCTGAGAGCAGCTTAGTTTGCA |  | no binding |  |
| TGAGGGTGAGGAGTGTGGGGA (ssDNA) [MYC M4] |  | no binding |  |
| TGAGGGTGGGGAGGGTGGGGA (structured_DNA) [MYC G4] | 2060 ± 120 nM |  |  |
